Measured values: the supplement of paper PMC10065799, “High-throughput profiling of sequence recognition by tyrosine kinases and SH2 domains using bacterial peptide display” (eLife, 2023)

Key:
SHP2-C SH2 = test: SH2 binding enrichment of the phosphorylated peptide, bacterial display (enrichment ratio); higher = better substrate or ligand; peptides without Tyr show the background
c-Src SH2 = test: as above
Grb2 SH2 = Grb2 SH2 (UniProt P62993); test: as above
EPHB2 = EPHB2 (UniProt P29323); test: phosphorylation enrichment, bacterial display (enrichment ratio); higher = better substrate or ligand; peptides without Tyr show the background
Fer (mouse) = test: as above
Hck = Hck (UniProt P08631); test: as above
c-Abl (mouse) = test: as above
EPHB1 = EPHB1 (UniProt P54762); test: as above
FGFR3 = FGFR3 (UniProt P22607); test: as above
FGFR1 = FGFR1 (UniProt P11362); test: as above
c-Src = test: as above
Jak2 = Jak2 (UniProt O60674); test: as above
Fyn = Fyn (UniProt P06241); test: as above
AncSZ = test: as above
Fes = Fes (UniProt P07332); test: as above
MERTK = MERTK (UniProt Q12866); test: as above
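Wherever SH2 binding enrichment of the phosphorylated peptide, bacterial display is given: peptide library displayed on the E. coli surface as eCPX fusions, selected cells deep-sequenced, score is each peptide's frequency after selection divided by its frequency in the input.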
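Wherever phosphorylation enrichment, bacterial display is given: 11-residue human phosphosite peptides and single-mutation variants displayed on the E. coli surface, counted by deep sequencing, each peptide's frequency after selection divided by its frequency in the unselected input library; frequency after pTyr selection over input frequency; kinase dosed for 20-30% of maximal phosphorylation in three min.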

Sequence of EPHB2 (P29323 whole entry, looked up): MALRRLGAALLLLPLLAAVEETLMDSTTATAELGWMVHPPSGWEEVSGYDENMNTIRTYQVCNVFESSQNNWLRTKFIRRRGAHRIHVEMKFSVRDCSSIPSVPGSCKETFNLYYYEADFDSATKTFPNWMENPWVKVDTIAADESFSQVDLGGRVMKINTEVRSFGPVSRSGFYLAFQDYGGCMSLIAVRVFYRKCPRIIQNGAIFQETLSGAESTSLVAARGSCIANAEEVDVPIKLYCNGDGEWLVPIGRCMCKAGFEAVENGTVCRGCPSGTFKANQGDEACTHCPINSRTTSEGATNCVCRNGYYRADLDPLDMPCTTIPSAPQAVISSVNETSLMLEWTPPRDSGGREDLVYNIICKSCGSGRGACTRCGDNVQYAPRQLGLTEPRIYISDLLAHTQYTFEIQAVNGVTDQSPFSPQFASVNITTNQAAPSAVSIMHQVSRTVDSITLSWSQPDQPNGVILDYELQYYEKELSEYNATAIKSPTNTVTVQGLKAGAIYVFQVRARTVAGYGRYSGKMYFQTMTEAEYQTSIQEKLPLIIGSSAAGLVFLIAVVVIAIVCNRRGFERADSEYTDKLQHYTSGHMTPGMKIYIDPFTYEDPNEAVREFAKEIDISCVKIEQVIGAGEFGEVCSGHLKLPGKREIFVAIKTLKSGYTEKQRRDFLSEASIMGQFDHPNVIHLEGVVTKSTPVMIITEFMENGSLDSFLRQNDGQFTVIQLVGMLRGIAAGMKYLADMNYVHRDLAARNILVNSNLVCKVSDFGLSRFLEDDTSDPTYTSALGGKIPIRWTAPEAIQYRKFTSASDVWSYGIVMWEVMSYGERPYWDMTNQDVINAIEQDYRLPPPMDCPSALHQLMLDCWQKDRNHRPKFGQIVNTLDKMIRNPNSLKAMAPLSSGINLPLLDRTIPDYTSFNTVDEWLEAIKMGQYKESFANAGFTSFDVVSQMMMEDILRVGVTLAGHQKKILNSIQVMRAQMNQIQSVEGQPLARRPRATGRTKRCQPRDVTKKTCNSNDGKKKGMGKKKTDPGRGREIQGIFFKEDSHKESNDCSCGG
Sequence of EPHB1 (P54762 whole entry, looked up): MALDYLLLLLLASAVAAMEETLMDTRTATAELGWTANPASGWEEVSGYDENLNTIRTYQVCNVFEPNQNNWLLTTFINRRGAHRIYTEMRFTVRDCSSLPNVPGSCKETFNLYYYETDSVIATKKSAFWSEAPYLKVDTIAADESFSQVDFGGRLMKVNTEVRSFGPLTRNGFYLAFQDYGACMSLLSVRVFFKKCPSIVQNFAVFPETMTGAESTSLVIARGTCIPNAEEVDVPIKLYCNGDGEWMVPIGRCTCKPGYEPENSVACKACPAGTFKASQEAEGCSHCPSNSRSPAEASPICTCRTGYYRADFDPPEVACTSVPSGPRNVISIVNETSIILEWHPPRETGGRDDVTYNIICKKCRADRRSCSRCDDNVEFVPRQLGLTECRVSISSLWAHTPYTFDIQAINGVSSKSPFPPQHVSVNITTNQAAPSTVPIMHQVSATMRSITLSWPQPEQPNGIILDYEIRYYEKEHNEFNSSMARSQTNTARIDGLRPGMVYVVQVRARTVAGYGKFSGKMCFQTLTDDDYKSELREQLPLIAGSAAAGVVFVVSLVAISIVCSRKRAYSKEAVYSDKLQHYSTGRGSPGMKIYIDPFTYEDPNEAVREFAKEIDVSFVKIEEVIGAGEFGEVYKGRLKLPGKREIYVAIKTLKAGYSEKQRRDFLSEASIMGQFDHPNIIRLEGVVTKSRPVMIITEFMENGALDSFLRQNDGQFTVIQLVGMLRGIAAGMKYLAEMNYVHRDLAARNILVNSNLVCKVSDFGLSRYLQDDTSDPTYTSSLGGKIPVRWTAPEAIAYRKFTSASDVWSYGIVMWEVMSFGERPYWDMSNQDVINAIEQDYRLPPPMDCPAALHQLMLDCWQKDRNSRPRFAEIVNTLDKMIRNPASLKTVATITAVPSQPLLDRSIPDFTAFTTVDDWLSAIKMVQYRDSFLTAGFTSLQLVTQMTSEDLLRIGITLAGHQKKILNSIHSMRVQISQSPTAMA
Sequence of FGFR3 (P22607 whole entry, looked up): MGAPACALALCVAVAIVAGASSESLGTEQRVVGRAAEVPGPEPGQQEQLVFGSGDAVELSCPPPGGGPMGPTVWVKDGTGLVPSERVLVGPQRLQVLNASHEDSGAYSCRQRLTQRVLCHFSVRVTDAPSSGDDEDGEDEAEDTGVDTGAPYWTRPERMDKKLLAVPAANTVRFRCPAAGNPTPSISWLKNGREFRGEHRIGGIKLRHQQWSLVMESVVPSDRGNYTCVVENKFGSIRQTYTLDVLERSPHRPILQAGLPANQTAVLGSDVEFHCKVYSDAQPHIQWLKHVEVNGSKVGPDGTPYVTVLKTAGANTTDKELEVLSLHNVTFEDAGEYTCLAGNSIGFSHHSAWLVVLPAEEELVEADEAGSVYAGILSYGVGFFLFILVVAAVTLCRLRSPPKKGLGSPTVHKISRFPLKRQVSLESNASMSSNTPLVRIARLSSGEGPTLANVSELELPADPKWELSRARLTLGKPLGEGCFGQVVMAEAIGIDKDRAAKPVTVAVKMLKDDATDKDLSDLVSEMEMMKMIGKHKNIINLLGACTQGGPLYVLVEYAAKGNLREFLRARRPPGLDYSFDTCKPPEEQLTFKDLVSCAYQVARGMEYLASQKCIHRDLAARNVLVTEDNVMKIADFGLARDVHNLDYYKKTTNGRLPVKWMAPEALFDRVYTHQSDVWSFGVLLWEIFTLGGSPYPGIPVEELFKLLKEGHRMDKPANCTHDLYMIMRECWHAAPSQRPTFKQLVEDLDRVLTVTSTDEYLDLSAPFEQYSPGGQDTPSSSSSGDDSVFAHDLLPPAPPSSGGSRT
Sequence of FGFR1 (P11362 whole entry, looked up): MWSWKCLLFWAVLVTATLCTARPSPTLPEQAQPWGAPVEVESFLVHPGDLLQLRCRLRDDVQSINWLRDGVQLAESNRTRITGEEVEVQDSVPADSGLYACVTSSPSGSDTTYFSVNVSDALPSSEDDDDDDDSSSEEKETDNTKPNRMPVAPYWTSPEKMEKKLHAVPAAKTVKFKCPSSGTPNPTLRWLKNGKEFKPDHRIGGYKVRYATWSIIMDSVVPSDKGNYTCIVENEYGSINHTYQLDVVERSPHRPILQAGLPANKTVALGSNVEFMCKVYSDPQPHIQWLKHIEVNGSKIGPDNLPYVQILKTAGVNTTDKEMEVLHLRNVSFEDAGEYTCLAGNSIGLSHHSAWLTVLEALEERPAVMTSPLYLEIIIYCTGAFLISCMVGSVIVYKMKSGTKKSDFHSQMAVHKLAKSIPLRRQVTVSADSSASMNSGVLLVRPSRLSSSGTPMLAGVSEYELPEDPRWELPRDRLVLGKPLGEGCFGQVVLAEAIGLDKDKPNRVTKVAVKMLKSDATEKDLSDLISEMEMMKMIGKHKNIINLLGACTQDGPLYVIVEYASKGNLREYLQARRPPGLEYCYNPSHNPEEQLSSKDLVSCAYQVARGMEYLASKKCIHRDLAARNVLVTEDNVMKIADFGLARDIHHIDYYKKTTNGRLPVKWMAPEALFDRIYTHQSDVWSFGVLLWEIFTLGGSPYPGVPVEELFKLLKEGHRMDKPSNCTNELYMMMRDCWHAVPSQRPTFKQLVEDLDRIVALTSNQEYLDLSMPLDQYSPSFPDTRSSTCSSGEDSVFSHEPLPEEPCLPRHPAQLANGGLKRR
Sequence of Hck (P08631 whole entry, looked up): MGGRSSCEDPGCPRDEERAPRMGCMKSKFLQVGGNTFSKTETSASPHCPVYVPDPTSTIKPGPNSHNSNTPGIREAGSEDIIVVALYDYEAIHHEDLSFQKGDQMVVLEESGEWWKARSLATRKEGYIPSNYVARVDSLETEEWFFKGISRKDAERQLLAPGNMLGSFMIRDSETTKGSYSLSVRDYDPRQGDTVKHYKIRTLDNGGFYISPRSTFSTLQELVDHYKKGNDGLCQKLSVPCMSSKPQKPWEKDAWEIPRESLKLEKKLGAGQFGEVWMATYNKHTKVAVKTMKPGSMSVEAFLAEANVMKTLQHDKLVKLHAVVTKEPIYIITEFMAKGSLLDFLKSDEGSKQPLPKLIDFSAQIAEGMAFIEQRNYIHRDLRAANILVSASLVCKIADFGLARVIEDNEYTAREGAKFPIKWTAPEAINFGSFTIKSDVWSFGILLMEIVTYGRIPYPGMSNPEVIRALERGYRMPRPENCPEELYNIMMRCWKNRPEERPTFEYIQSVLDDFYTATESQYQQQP
Sequence of Fes (P07332 whole entry, looked up): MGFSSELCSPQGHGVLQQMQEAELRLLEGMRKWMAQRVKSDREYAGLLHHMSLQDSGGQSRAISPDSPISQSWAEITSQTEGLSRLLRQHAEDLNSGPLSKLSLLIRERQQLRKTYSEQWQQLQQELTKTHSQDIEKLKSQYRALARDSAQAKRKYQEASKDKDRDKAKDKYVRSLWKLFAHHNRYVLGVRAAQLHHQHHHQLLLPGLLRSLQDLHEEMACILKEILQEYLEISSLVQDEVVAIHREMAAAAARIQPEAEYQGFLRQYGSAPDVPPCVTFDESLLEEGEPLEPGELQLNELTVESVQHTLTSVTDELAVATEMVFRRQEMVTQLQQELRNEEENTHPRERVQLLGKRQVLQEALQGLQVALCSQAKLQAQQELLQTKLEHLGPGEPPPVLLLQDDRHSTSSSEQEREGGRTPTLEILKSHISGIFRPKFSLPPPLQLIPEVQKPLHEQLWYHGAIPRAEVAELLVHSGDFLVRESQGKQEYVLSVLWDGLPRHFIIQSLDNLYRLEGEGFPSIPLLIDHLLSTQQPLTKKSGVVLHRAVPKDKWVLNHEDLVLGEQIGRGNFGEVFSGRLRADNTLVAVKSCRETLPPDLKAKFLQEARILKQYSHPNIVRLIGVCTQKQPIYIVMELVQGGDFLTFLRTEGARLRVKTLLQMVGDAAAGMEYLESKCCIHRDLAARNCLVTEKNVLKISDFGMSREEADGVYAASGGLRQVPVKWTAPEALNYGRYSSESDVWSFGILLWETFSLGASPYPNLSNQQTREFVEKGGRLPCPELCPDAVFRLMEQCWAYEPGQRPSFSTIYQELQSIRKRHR

Row | Sequence | SH2 binding enrichment (SHP2-C SH2) | SH2 binding enrichment (c-Src SH2) | SH2 binding enrichment (Grb2 SH2) | phosphorylation enrichment (EPHB2) | phosphorylation enrichment (Fer (mouse)) | phosphorylation enrichment (Hck) | phosphorylation enrichment (c-Abl (mouse)) | phosphorylation enrichment (EPHB1) | phosphorylation enrichment (FGFR3) | phosphorylation enrichment (FGFR1) | phosphorylation enrichment (c-Src) | phosphorylation enrichment (Jak2) | phosphorylation enrichment (Fyn) | phosphorylation enrichment (AncSZ) | phosphorylation enrichment (Fes) | phosphorylation enrichment (MERTK)
1 | PSPMPYAFCQM [FOXL2_Y215_S217F] | 0.774 | 1.7 | 0.64 | 1.28 | 9.08 | 0.934 | 1.44 | 1.3 | 2.31 | 2.61 | 1.99 | 1.75 | 0.706 | 1.87 | 2.17 | 1.41
2 | KGELCYMHSRV [ABCD1_Y281_R280C] | 0.883 | 0.632 | 1.31 | 0.581 | 0.449 | 0.485 | 0.43 | 0.597 | 0.682 | 0.479 | 0.402 | 0.568 | 0.505 | 0.813 | 0.757 | 0.563
3 | IQKWEYVPLGT [FAH_Y244_P249T] | 0.497 | 0.817 | 0.837 | 0.532 | 0.416 | 0.428 | 0.564 | 0.768 | 0.723 | 1.06 | 0.384 | 1.23 | 0.475 | 0.954 | 0.866 | 0.328
4 | CPFNLYAEQFS [HGD_Y40_L44F_YF] | 0.519 | 0.66 | 0.942 | 1.29 | 0.923 | 1.08 | 1.16 | 2.19 | 0.847 | 0.747 | 1.49 | 1.34 | 0.834 | 1.45 | 1.54 | 1.6
5 | TWQSMYGCDVG [HLA-B_Y123_L119W] | 0.661 | 0.684 | 0.899 | 0.63 | 0.548 | 0.498 | 1.03 | 0.933 | 0.802 | 0.533 | 0.735 | 1.37 | 0.531 | 1.02 | 1.22 | 0.6
6 | MSSLFYANALF [HOXB7_Y6_T9A_YF] | 0.64 | 0.693 | 1.25 | 0.755 | 1.78 | 0.705 | 0.696 | 0.764 | 0.743 | 0.58 | 0.975 | 1.24 | 0.762 | 0.975 | 1.21 | 1.29
7 | KASIMYPSSNC [CXCL11_Y52_N55S] | 0.7 | 0.565 | 0.943 | 0.48 | 0.452 | 0.429 | 0.497 | 0.411 | 0.467 | 0.455 | 0.397 | 0.522 | 0.434 | 0.629 | 0.653 | 0.395
8 | FVPSFYHAFSG [ACTN4_Y265_S262P_YF] | 1.2 | 0.921 | 0.993 | 0.756 | 0.444 | 1.48 | 0.835 | 1.23 | 0.824 | 0.796 | 1.88 | 0.823 | 1.48 | 0.711 | 0.83 | 7.34
9 | FQNSLYAPDFS [FAM92A_Y226_R222Q_YF] | 0.614 | 0.591 | 0.891 | 4.54 | 3.35 | 2.12 | 0.781 | 4.07 | 1.47 | 1.48 | 2.18 | 1.08 | 2.08 | 0.9 | 0.945 | 7.8
10 | VISNAYVDLAP [HSD17B4_Y602] | 1.21 | 3.79 | 0.858 | 0.557 | 0.516 | 0.471 | 0.475 | 0.436 | 0.653 | 0.89 | 0.435 | 0.707 | 0.428 | 0.675 | 0.777 | 0.589
11 | NKYVAYIESQG [KDM4B_Y34] | 1.51 | 0.676 | 0.755 | 0.472 | 0.422 | 0.413 | 0.692 | 0.554 | 0.625 | 0.567 | 0.437 | 0.827 | 0.407 | 0.893 | 0.885 | 0.449
12 | YPPDGYSRHYE [CTNND1_Y213] | 1.04 | 1.21 | 0.911 | 0.394 | 0.354 | 0.414 | 0.355 | 0.388 | 0.548 | 0.451 | 0.354 | 0.534 | 0.348 | 0.561 | 0.655 | 0.395
13 | EFKKHYGYSLY [ANXA3_Y295] | 1.51 | 1.57 | 1.31 | 0.39 | 0.353 | 0.727 | 0.541 | 0.367 | 0.38 | 0.471 | 0.598 | 0.555 | 0.433 | 0.531 | 0.611 | 0.401
14 | VLVSQYEKLDA [AMZ2_Y26_N30D] | 0.602 | 7.26 | 0.896 | 0.606 | 0.47 | 0.484 | 0.586 | 0.561 | 0.589 | 0.366 | 0.539 | 0.738 | 0.489 | 0.808 | 0.826 | 0.462

More lines, main results first:

Row | SH2 binding enrichment (SHP2-C SH2) | SH2 binding enrichment (c-Src SH2) | SH2 binding enrichment (Grb2 SH2) | Sequence | phosphorylation enrichment (EPHB2) | phosphorylation enrichment (Fer (mouse)) | phosphorylation enrichment (Hck) | phosphorylation enrichment (c-Abl (mouse)) | phosphorylation enrichment (EPHB1) | phosphorylation enrichment (FGFR3) | phosphorylation enrichment (FGFR1) | phosphorylation enrichment (c-Src) | phosphorylation enrichment (Jak2) | phosphorylation enrichment (Fyn) | phosphorylation enrichment (AncSZ) | phosphorylation enrichment (Fes) | phosphorylation enrichment (MERTK)
15 | 0.586 | 0.42 | 0.433 | FFCKFYNKSED [RYR1_Y4864_R4861C] | 0.601 | 0.598 | 0.552 | 1.09 | 0.712 | 0.939 | 0.536 | 0.489 | 1.62 | 0.426 | 1.3 | 1.74 | 0.395
16 | 0.638 | 0.842 | 0.839 | GLRSYYETSKM [MAGED2_Y449] | 0.584 | 0.465 | 0.656 | 0.534 | 0.475 | 1.13 | 1.44 | 0.591 | 0.784 | 0.417 | 0.592 | 0.762 | 0.546
17 | 0.906 | 0.452 | 0.799 | IITDFYVDMKF [MPP4_Y567_V562I_YF] | 1.08 | 0.953 | 0.722 | 0.905 | 1.41 | 1.39 | 1.37 | 0.58 | 1.75 | 0.527 | 1.31 | 1.66 | 0.511
18 | 1.27 | 0.531 | 0.895 | HAVFVYDICHV [TWNK_Y508_YF] | 1.36 | 3.38 | 2.8 | 1.47 | 1.49 | 1.05 | 0.631 | 4.61 | 1.65 | 4.27 | 1.88 | 2.02 | 2.62
19 | 0.923 | 0.746 | 1.15 | KLRMESLSLMH [NCKIPSD_Y660_Y660S] | 0.483 | 0.388 | 0.415 | 0.508 | 0.423 | 0.476 | 0.453 | 0.457 | 0.644 | 0.45 | 0.658 | 0.782 | 0.436
20 | 0.796 | 0.522 | 1.17 | TAIFIYIRPKA [OR10C1_Y258_L255I] | 0.68 | 0.584 | 0.481 | 0.641 | 0.414 | 0.814 | 0.518 | 0.521 | 1.46 | 0.615 | 1.79 | 1.39 | 0.387
21 | 0.554 | 0.597 | 0.754 | DPNQQYFIAMD [TBX15_Y159_H156N_YF] | 0.443 | 0.403 | 0.493 | 0.672 | 0.466 | 0.866 | 0.892 | 0.482 | 0.911 | 0.444 | 1.07 | 0.934 | 0.356
22 | 0.827 | 0.572 | 0.825 | DFPMGYPSYLA [TBCK_Y153_I151M] | 0.453 | 0.362 | 0.367 | 0.507 | 0.399 | 0.473 | 0.412 | 0.416 | 0.663 | 0.443 | 0.65 | 0.751 | 0.464
23 | 0.65 | 0.474 | 0.631 | RRYVYYYSYLL [PTEN_Y177] | 0.829 | 0.518 | 0.764 | 1.39 | 0.672 | 1.11 | 1.88 | 0.79 | 0.986 | 0.771 | 0.814 | 0.768 | 3.68
24 | 0.737 | 1.6 | 0.777 | SLIDMYSKVLD [OPA1_Y268_E270K] | 0.57 | 0.501 | 0.497 | 0.482 | 0.462 | 0.637 | 0.479 | 0.478 | 0.814 | 0.421 | 0.953 | 1.02 | 0.481
25 | 0.55 | 0.381 | 0.697 | MRNDLYQTPLH [NFKB1_Y582] | 2.44 | 4.12 | 4.21 | 5.88 | 1.19 | 0.57 | 0.454 | 1.94 | 0.693 | 1.8 | 1.69 | 0.845 | 2.62
26 | 0.804 | 0.487 | 0.695 | LGSNTYPFLLT [SAG_Y120] | 0.655 | 0.793 | 0.54 | 0.938 | 0.77 | 1.4 | 1.11 | 0.543 | 0.785 | 0.505 | 1.26 | 1.22 | 0.589
27 | 0.681 | 0.467 | 0.9 | SFPREYGSQEG [RBM10_Y48_YF] | 0.447 | 0.387 | 0.565 | 0.461 | 0.392 | 0.567 | 0.491 | 0.475 | 0.532 | 0.506 | 0.715 | 0.755 | 0.48
28 | 1.69 | 1.08 | 1.01 | MKVPLYETPAG [PGM5_Y358_V357L] | 27.8 | 16.7 | 6.03 | 11.2 | 19.4 | 0.632 | 0.52 | 1.81 | 0.767 | 1.82 | 1.64 | 1.06 | 9.79
29 | 0.727 | 0.435 | 0.76 | LRRREYQRQDY [PRKRIP1_Y90] | 0.786 | 0.504 | 0.621 | 0.554 | 0.706 | 0.683 | 0.532 | 0.565 | 0.289 | 0.706 | 0.841 | 0.64 | 0.541
30 | 0.483 | 0.557 | 0.879 | GLDGSYLPRDS [SH2D1A_Y29_L31P] | 0.4 | 0.419 | 0.55 | 0.513 | 0.44 | 0.446 | 0.418 | 0.418 | 0.534 | 0.356 | 0.663 | 0.624 | 0.416
31 | 0.896 | 0.623 | 0.857 | DIDKIYIRTGI [PIK3CA_Y355_V356I] | 0.543 | 0.839 | 0.481 | 0.576 | 0.585 | 0.673 | 0.521 | 0.395 | 1.06 | 0.479 | 1.25 | 1.01 | 0.342
32 | 0.789 | 0.477 | 0.787 | SSPRRYTIAAL [TTR_Y125_G121S] | 0.374 | 0.382 | 0.378 | 0.4 | 0.303 | 0.402 | 0.383 | 0.312 | 0.356 | 0.412 | 0.437 | 0.567 | 0.34
33 | 1.23 | 1.2 | 1.47 | QGIFGYHHFMQ [UFSP2_Y287_YF] | 0.59 | 0.857 | 0.692 | 1.13 | 0.794 | 0.93 | 0.838 | 0.531 | 1.27 | 0.615 | 1.32 | 1.41 | 0.549
